Results published in patent publication US10202593B2, “Evolved sortases and uses thereof” (President and Fellows of Harvard College, priority 2013, dated 2019).
Like-named read-outs stand apart in the source and are kept apart here.

T1: LPESG (Abz-LPESGK(Dnp)-CONH2) (Staphylococcus aureus, UniProt Q2FV99, D160N/D165A/K190E/K196T/P94R)
T1 construct: All expressed sortases lack the N-terminal 59 amino acids; inferred from Ni-NTA purification; made in house; host or cells: E. coli BL21 (DE3), pET29
T1 sequence (Q2FV99 60-206 P94R/D160N/D165A/G167E/K190E/K196T): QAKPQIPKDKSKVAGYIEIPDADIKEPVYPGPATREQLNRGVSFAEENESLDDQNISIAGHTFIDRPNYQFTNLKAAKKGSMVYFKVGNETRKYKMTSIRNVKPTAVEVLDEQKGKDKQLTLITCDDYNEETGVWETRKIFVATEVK

T2: LRETG (Staphylococcus aureus, UniProt Q2FV99, A104H/D160K/D165A/E105D/I182V/K138P/K152I/K162H/K173E/K190E/K196S/P94R/S102C/T164N)
T2 construct: All expressed sortases lack the N-terminal 59 amino acids; inferred from Ni-NTA purification; made in house; host or cells: E. coli BL21 (DE3), pET29
T2 sequence (Q2FV99 60-206 P94R/S102C/A104H/E105D/K138P/K152I/D160K/K162H/T164N/D165A/G167E/K173E/I182V/K190E/K196S): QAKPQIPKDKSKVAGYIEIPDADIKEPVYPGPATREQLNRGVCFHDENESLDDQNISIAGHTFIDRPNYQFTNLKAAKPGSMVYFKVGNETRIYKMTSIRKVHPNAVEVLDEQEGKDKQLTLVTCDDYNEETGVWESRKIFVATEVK

B1: eSrtA (protein)
chain: T1 sequence (Q2FV99 60-206 P94R/D160N/D165A/G167E/K190E/K196T)
B2: eSrtA(2A-9): P94R, S102C, A104H, E105D, K138P, K152I, N160K, K162H, T164N, D165A, K173E, I182V, K190E, T196S (protein)
chain: T2 sequence (Q2FV99 60-206 P94R/S102C/A104H/E105D/K138P/K152I/D160K/K162H/T164N/D165A/G167E/K173E/I182V/K190E/K196S)

Assays:
[1] = biological target: T1, LPESG (Abz-LPESGK(Dnp)-CONH2); assay: In vitro sortase kinetics HPLC assay, LPESG substrate; type: biochemical; conditions: ratio of kcat/KM
In short: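 Abz-LXEXGK(Dnp) peptides in 300 mM Tris pH 7.5, 150 mM NaCl, 5 mM CaCl2, 5% DMSO, GGG; 22.5° C., acid-quenched, converted fraction by reverse-phase HPLC peak areas. kcat and Km from eight substrate concentrations fit to Michaelis-Menten; KH at 1 mM substrate over eight GGG levels.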

[2] = biological target: T2, LRETG; assay: In vitro sortase kinetics HPLC assay, LRETG substrate; type: biochemical
Experimental: See below for details on sortase expression and purification, and on the synthesis of Abz-LPETGK(Dnp)-CONH2 (SEQ ID NO: 19). […] Reactions were initiated with the addition of enzyme and incubated at 22.5° C. for 3 to 20 minutes before quenching with 0.5 volumes of 1 M HCl. Five to ten nmol of peptide from the quenched reactions were injected onto an analytical reverse-phase Eclipse XDB-C18 HPLC column (4.6×150 mm, 5 μm, Agilent Technologies) and chromatographed using a gradient of 10 to 65% acetonitrile with 0.1% TFA in 0.1% aqueous TFA over 13 minutes. Retention times under these conditions for the Abz-LPETGK(Dnp)-CONH2 (SEQ ID NO: 19) substrate, the released GKDnp peptide, and the Abz-LPETGGG-COOH (SEQ ID NO: 20) product were 12.8, 10.4, and 9.1 min, respectively. To calculate the percent conversion, the ratio of the integrated areas of the Abz-LPETGGG-COOH (SEQ ID NO: 20) and Abz-LPETGK(Dnp)-CONH2 (SEQ ID NO: 19) peptide Abs220 peaks was compared to a standard curve generated by mixing the product and starting peptide in known ratios. To determine […] and Km, reaction rates were fit to the Michaelis-Menten equation using OriginPro 7.0 software. All kinetics values reported represent the average of at least three measurements. Percent conversion was also calculated by using the ratio of the integrated areas of the GK(Dnp)-CONH2 and Abz-LPETGK(Dnp)-CONH2 peptide Abs355 peaks were compared directly (Example 5). To determine kcat and Km, LPETG, reaction rates were fit to the Michaelis-Menten equation using Microsoft Excel using the Solver add-in. To determine Km,GGG and KH, reaction rates were fit to the modified Michaelis-Menten, for which KH is as defined when KH<<Km,GGG.
Assays to determine eSrtA, eSrtA(2A-9) and eSrtA(4S-9) specificity were performed by preparing 10 μM stocks of Abz-LXEXGK(Dnp) (SEQ ID NO: 75) peptides in 300 mM Tris pH 7.5, 150 mM NaCl, 5 mM CaCl2, 5% v/v DMSO, and 100 mM Gly-Gly-Gly-COOH (GGG). Reactions were performed by adding eSrtA(2A-9) to a final concentration of 450 nM, eSrtA(4S-9) to a final concentration of 115 nM or eSrtA to a final concentration of 47.5 nM and a final volume of 100 μL, then incubating at 22.5° C. for 15 minutes. Reactions were quenched by the addition of 0.2 volumes of 5 M HCl, then were injected onto an analytical reverse-phase Eclipse XDB-C18 HPLC column (4.6×150 mm, 5 μm, Agilent Technologies) and chromatographed using a gradient of 10 to 65% acetonitrile with 0.1% TFA in 0.1% aqueous TFA over 13 minutes. […]

| Molecule | preference for LPETG over LPESG [1] [fold] | KH ([2]; 1 mM LRETG) [µM] | Km ([2]; 1 mM LRETG, read-out: Km,GGG) [µM] | Kcat (Hz) ([2]; Sub LRETG, 100 mM GGG) | Km ([2]; Sub LRETG, 100 mM GGG, read-out: Km) [µM] |
| --- | --- | --- | --- | --- | --- |
| B1 | 5 |  |  |  |  |
| B2 |  | 47.5 ± 1.3 | 628 ± 11 | 0.25 ± 0.02 | 1070 ± 63 |
